Assay results from US20100216191A1, “Method for Manufacturing a Modified Peptide” (PROCOMCURE BIOTECH GMBH, priority 2007, published 2010).

B1: HSPC 118: human protein interacting with FnbB, NCBI Protein GI 6841458 (protein)
chain: MVGGGGVGGGLLENANPLIYQRSGERPVTAGEEDEQVPDSIDAREIFDLIRSINDPEHPLTLEELNVVEQVRVQVSDPESTVAVAFTPTIPHCSMATLIGLSIKVKLLRSLPQRFKMDVHITPGTHASEHAVNKQLADKERVAAALENTHLLEVVNQCLSARS
B2: FLNA: human protein interacting with FnbB, NCBI Protein GI 15779184 (protein)
chain: MPSGKVAQPTITDNKDGTVTVRYAPSEAGLHEMDIRYDNMHIPGSPLQFYVDYVNCGHVTAYGPGLTHGVVNKPATFTVNTKDAGEGGLSLAIEGPSKAEISCTDNQDGTCSVSYLPVLPGDYSILVKYNEQHVPGSPFTARVTGDDSMRMSHLKVGSAADIPINISETDLSLLTATVVPPSGREEPCLLKRLRNGHVGISFVPKETGEHLVHVKKNGQHVASSPIPVVISQSEIGDASRVRVSGQGLHEGHTFEPAEFIIDTRDAGYGGLSLSIEGPSKVDINTEDLEDGTCRVTYCPTEPGNYIINIKFADQHVPGSPFSVKVTGEGRVKESITRRRRAPSVANVGSHCDLSLKIPEISIQDMTAQVTSPSGKTHEAEIVEGENHTYCIRFVPAEMGTHTVSVKYKGQHVPGSPFQFTVGPLGEGGAHKVRAGGPGLERAEAGVPAEFSIWTREAGAGGLAIAVEGPSKAEISFEDRKDGSCGVAYVVQEPGDYEVSVKFNEEHIPDSPFVVPVASPSGDARRLTVSSLQESGLKVNQPASFAVSLNGAKGAIDAKVHSPSGALEECYVTEIDQDKYAVRFIPRENGVYLIDVKFNGTHIPGSPFKIRVGEPGHGGDPGLVSAYGAGLEGGVTGNPAEFVVNTSNAGAGALSVTIDGPSKVKMDCQECPEGYRVTYTPMAPGSYLISIKYGGPYHIGGSPFKAKVTGPRLVSNHSLHETSSVFVDSLTKATCAPQHGAPGPGPADASKVVAKGLGLSKAYVGQKSSFTVDCSKAGNNMLLVGVHGPRTPCEEILVKHVGSRLYSVSYLLKDKGEYTLVVKWGDEHIPGSPYRVVVP

Test system: GST-tagged FnbB
Assay: Pull-down with GST-tagged FnbB, proteins from rabbit reticulocyte translation system
Assay type: binding, S. aureus
Settings: cell-free protein translation system; GST alone as negative control
From the text: Recombinant proteins were produced from the isolated plasmids from the PPI-partners in a rabbit reticulocyte-based translation system and additionally in E. coli cells. The produced recombinant proteins were used for pull-down and immunoprecipitation experiments.

Molecule | Co-purified with GST-tagged FnbB
B1 | could be co-purified
B2 | could be co-purified
